Columns and labels:
human CD47 (human) [1] = target: human CD47 (human) (UniProt Q08722); assay: flow cytometry on human red blood cells, antibody at 15 µg/mL (negative control)
human CD47 (human) [2] = target: human CD47 (human) (UniProt Q08722); assay: flow cytometry on human red blood cells, antibody at 150 µg/mL (negative control)

human CD47 (human), sequence (Q08722 19-323): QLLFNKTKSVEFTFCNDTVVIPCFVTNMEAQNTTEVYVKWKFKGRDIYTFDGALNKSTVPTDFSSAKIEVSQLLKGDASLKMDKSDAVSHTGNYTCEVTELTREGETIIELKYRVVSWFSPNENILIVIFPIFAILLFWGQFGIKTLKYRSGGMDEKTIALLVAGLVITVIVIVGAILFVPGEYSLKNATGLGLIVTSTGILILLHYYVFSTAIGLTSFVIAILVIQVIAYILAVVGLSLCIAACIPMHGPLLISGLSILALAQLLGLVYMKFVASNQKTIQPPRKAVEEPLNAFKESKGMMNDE

## Human IgG1 isotype negative control (antibody)
Human CD47 (human) [1]
  MFI: 303 MFI
Human CD47 (human) [2]
  MFI: 901 MFI

— patent US20250257128A1
